# B1: library; numbered along this chain (parent)
# chain: MAAAGGARLLRAASAVLGGPAGRWLHHAGSRAGSSGLLRNRGPGGSAEASRSLSVSARARSSSEDKITVHFINRDGETLTTKGKVGDSLLDVVVENNLDIDGFGACEGTLACSTCHLIFEDHIYEKLDAITDEENDMLDLAYGLTDRSRLGCQICLTKSMDNMTVRVPETVADARQSIDVGKTS
# Variants of: B1
# Experiment: scaled log2 fold change in cell abundance, elesclomol vs control (0 = silent mean, 1 = nonsense mean) (scaled log2 ratio); higher = higher viability under elesclomol (loss of FDX1 cuproptosis function)
# Details: glucose 10 mM
# Description: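 Deep mutational scan of full-length human FDX1: a pooled saturation-mutagenesis ORF library (every residue 2-184 mutated to all 19 amino acids plus stop, and silent codons where available) was expressed by lentivirus in FDX1-knockout ABC1 (14 days) or HEK293T (11 days) cells grown with elesclomol (ES) or DMSO control. Variant abundance came from ORF sequencing. The log2 fold change (ES vs control, mean of duplicates) was centred on the silent-variant mean (0) and scaled to the nonsense-variant mean (1). Higher values mean greater viability under ES, i.e. loss of FDX1 function in cuproptosis.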
# [1] = with ABC1 FDX1 KO, elesclomol 5 nM, 14 days
# [2] = with HEK293T FDX1 KO, elesclomol 40 nM, 11 days
# 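Further: variant abundance is its share of total variant reads in each endpoint sample, from next-generation sequencing of the integrated ORF PCR-amplified out of genomic DNA.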
Variant,scaled log2 fold change [1],scaled log2 fold change [2]
K66W,-0.5,-0.676
K66R,0.114,-0.744
K66E,-0.297,-0.118
K66Y,-0.0452,-0.0505
K66S,-0.679,-0.304
K66T,0.0453,0.851
K66V,0.0478,-0.102
K66P,-0.38,-0.254
K66M,-0.188,-0.226
K66F,-0.158,-0.676
S62I,0.0619,-0.0402
S62Y,-0.427,
S62R,-0.893,0.128
S62E,0.0386,
S62G,-0.00606,0.141
S62C,-0.366,-0.138
S62Q,0.0996,0.145
S62L,0.0177,0.0918
S62D,0.269,1.05
S62A,-0.86,-0.876
S62T,-0.0712,-0.205
S62H,-0.223,0.729
S62M,0.0792,
S62F,0.075,0.425

Variant,scaled log2 fold change [1],scaled log2 fold change [2]
S62W,-0.132,
S62N,0.0847,-0.479
S62K,0.104,1.13
T68E,-0.318,-0.497
T68V,0.247,0.769
T68M,-0.209,0.641
T68F,-0.000655,0.914
T68W,0.0579,0.896
T68A,-0.0418,-0.389
T68D,0.0867,0.164
T68Q,0.0568,-0.103
T68K,-0.155,-0.329
T68H,0.349,-0.699
T68S,-0.0825,0.833
T68N,0.00412,-0.202
T68L,0.248,0.885
T68I,0.0915,0.0716
T68C,0.309,-0.148
T68R,-0.0852,-0.377
T68G,-0.0825,0.801
T68P,0.317,0.911
S63M,0.124,-0.609
S63G,0.283,0.000639
S63A,0.227,0.763

Variant,scaled log2 fold change [1],scaled log2 fold change [2]
S63N,-0.0613,-0.00891
S63T,0.0678,-0.0954
S63H,0.197,0.218
S63C,0.302,-0.446
S63L,0.0558,-0.251
S63W,0.527,0.0977
S63F,0.0355,-0.0458
S63D,-0.272,-0.143
S63K,0.173,-0.352
S63R,0.598,-0.598
S63Y,0.0691,0.7
S63P,0.175,0.000753
S63V,0.189,0.0727
S63I,-1.11,0.315
S63Q,-0.105,0.797
S63E,0.199,-0.451
R60P,-0.332,0.626
R60W,-0.217,0.972
R60T,-0.956,-0.542
R60K,-0.27,
R60G,-0.278,-0.224
R60H,-0.288,-0.116
R60V,0.116,
R60F,0.0888,-0.201

Variant,scaled log2 fold change [1],scaled log2 fold change [2]
R60E,-0.329,0.272
R60A,0.137,
R60Y,0.215,0.0482
R60I,0.0411,
R60Q,-0.0931,-0.217
R60M,-0.213,0.72
R60C,0.327,-0.517
R60S,0.275,0.216
R60L,0.042,-0.384
R60N,-0.096,0.128
E64W,-0.394,
E64R,-0.913,0.0821
E64G,-0.323,0.0488
E64C,-0.0781,0.793
E64H,-0.531,-0.334
E64L,-0.17,-0.952
E64P,0.158,0.0559
E64M,-0.109,-0.0994
E64Y,0.374,-0.0105
E64S,-0.691,-0.469
E64Q,-0.0857,-0.107
E64K,0.278,-0.162
E64V,-0.321,-0.136
E64T,0.135,-0.296

Variant,scaled log2 fold change [1],scaled log2 fold change [2]
E64I,0.394,0.168
E64D,0.0681,-0.0197
E64F,0.0956,
E64A,-0.335,1.19
D65V,0.161,-0.27
D65S,-0.464,0.216
D65T,-0.192,
D65Y,0.323,0.288
D65F,-0.512,-0.119
D65H,0.192,0.0338
D65E,-0.139,0.087
D65R,-0.395,-0.257
D65M,-0.334,-0.318
D65C,0.243,-0.327
D65A,-0.0535,-0.237
D65Q,0.0546,0.293
D65P,-0.000175,0.99
D65G,0.134,-0.165
D65W,0.185,0.126
D65L,0.175,-0.119
D65I,0.277,
D65K,-0.369,-0.531
D65N,-0.21,0.98
